The values that follow come from patent US20260116996A1 (REGENTS OF THE UNIVERSITY OF MINNESOTA, published 2026).

The target of one data set is mouse serpinB13 (mouse) (UniProt Q8CDC0). In words: flow cytometry, isotype control staining in place of B29 and anti-EpCAM; the tissue of this panel is not named. In general terms: In flow cytometry, cells or beads pass a laser one at a time.
The target of data set [1] is T1, recombinant human serpinB13 (human, UniProt Q9UIV8 1-391).
T1 construct: The baculovirus-made protein (GenScript) was used for panning, ELISA and the cathepsin L assay; In the Luminex assay human serpinB13 was V5-His tagged and came from 293 cell lysates; also called rhB13
T1 sequence (looked up): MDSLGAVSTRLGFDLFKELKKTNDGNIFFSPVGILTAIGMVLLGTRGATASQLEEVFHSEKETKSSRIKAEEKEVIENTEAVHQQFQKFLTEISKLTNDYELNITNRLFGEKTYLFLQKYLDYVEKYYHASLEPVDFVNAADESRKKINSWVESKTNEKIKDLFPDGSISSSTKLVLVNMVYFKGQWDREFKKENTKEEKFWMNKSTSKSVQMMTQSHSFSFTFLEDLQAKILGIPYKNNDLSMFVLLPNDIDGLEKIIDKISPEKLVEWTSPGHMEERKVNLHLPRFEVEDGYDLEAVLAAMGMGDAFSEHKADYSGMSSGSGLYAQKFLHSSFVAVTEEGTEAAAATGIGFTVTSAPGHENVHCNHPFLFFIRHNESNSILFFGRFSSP

mouse serpinB13 (mouse), sequence (Q8CDC0 whole entry): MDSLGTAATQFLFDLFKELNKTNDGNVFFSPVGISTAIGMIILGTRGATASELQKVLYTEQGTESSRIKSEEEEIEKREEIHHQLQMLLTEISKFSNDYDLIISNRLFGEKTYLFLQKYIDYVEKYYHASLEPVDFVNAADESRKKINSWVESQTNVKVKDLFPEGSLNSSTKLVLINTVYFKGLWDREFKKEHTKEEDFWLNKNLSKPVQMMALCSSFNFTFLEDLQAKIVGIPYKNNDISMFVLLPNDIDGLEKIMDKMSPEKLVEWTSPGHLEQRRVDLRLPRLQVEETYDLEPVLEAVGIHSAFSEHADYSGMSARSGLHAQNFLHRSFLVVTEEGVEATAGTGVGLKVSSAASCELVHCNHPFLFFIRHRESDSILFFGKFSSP

On to Control Ab (antibody), for which, in the data set with mouse serpinB13 (mouse), the quadrant Q1 (SerpinB13-Alexa647 high, EpCAM low), percent of cells is 0.43. Consider “cathepsin L (Cathepsin L Inhibitor Screening Kit, BioVision)”, for which, in data set [1], the “substrate cleavage by CatL (fluorescence, kinetic mode)” value was “Inhibition of a substrate cleavage by CatL with different doses of recombinant human serpinB13 over time”.
